The assay has as its target T1, CusB (E. coli, UniProt P77239 29-407).
T1 sequence (looked up): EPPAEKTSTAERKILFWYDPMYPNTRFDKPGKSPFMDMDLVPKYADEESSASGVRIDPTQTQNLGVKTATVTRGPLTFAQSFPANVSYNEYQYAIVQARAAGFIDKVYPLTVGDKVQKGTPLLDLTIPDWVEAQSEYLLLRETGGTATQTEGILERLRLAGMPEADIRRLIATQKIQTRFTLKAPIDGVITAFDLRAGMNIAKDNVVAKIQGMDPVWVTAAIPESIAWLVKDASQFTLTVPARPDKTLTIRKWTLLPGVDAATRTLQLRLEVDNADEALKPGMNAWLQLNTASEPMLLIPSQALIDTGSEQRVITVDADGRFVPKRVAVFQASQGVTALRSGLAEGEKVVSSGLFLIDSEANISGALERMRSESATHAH
Briefly: NMR 15N relaxation.

B1: CusF (natural protein, E. coli, UniProt P77214 22-110, looked up)
chain: ANEHHHETMSEAQPQVISATGVVKGIDLESKKITIHHDPIAAVNWPEMTMRFTITPQTKMSEIKTGDKVAFNFVQQGNLSLLQDIKVSQ
With B1, the Kd was around 160 µM.

One may read the Kd as a measure of binding affinity in units of concentration. A higher Kd goes with weaker binding.

Source of the values: paper PMC3072847 (Biochemistry, 2011).
